Source: US20240252614A1 (Pfizer, published 2024)

Key:
hMPV082 = target: T1, hMPV082 (hMPV A, UniProt Q6WB98 19-102); experiment: BLI, 58C stress
T1 construct: T411C-Q434C, A140C-S149C, G239A
Description: (§1) The OCTET HTX (Sartorius, Gottingen, Germany) instrument was used to evaluate the expression and conformational integrity for each mutant. All measurements were conducted at 30° C. temperature in 96-well black plates (Corning, Corning, NY) with a final volume of 240 μL per well at a constant agitation rate of 1000 RPM.
(§2) Conformation integrity of hMPV A F protein mutants were evaluated by thermal stress experiments. Crude cell culture supernatants were normalized based on the results of the titer quantitation and then incubated for 1 hour at room temperature and two higher temperatures. […] Anti-Human IgG Fc Capture (AHC) biosensors were first equilibrated in PB before being dipped into more PB to establish the initial baseline. […] The mAb-bound biosensors were then dipped into the thermal stressed cell culture supernatants for 5 minutes. The kinetics analysis was done by OCTET data analysis software (version 12.0, Sartorius) based on curve fitting of the entire associate step.

hMPV088 = target: T2, hMPV088 (hMPV A, UniProt Q6WB98 19-102); experiment: BLI, 58C stress
T2 construct: T411C-Q434C, L141C-A161C, G239A
Description: as §1, §2

hMPV090 = target: T3, hMPV090 (hMPV A, UniProt Q6WB98 19-102); experiment: BLI, 58C stress
T3 construct: T411C-Q434C, L141C-A161C, A459P, G239A, T49I, S149T, T365I
Description: as §1, §2

hMPV087 = target: T4, hMPV087 (hMPV A, UniProt Q6WB98 19-102); experiment: BLI, 58C stress
T4 construct: T411C-Q434C, L141C-A161C, T365I
Description: as §1, §2

hMPV086 = target: T5, hMPV086 (hMPV A, UniProt Q6WB98 19-102); experiment: BLI, 58C stress
T5 construct: T411C-Q434C, L141C-A161C, T49I; also called hMP0086
Description: as §1, §2

hMPV078 = target: T6, hMPV078 (hMPV A, UniProt Q6WB98 19-102); experiment: BLI, 58C stress
T6 construct: T411C-Q434C, A140C-S149C
Description: as §1, §2

hMPV097 = target: T7, hMPV097 (hMPV A, UniProt Q6WB98 19-102); experiment: BLI, 58C stress
T7 construct: T411C-Q434C, E146C-T160C, A459P, G239A, T49I, S149T, T365I
Description: as §1, §2

hMPV A F WT Control = hMPV A F WT Control (hMPV A, UniProt Q6WB98 19-102); experiment: BLI, 58C stress
Description: as §1, §2

hMPV083 = target: T8, hMPV083 (hMPV A, UniProt Q6WB98 19-102); experiment: BLI, 58C stress
T8 construct: T411C-Q434C, A140C-S149C, A459P, G239A, T49I, T365I
Description: as §1, §2

hMPV079 = target: T9, hMPV079 (hMPV A, UniProt Q6WB98 19-102); experiment: BLI, 58C stress
T9 construct: T411C-Q434C, A140C-S149C, A459P
Description: as §1, §2

hMPV085 = target: T10, hMPV085 (hMPV A, UniProt Q6WB98 19-102); experiment: BLI, 58C stress
T10 construct: T411C-Q434C, L141C-A161C, A459P
Description: as §1, §2

hMPV084 = target: T11, hMPV084 (hMPV A, UniProt Q6WB98 19-102); experiment: BLI, 58C stress
T11 construct: T411C-Q434C, L141C-A161C
Description: as §1, §2

hMPV081 = target: T12, hMPV081 (hMPV A, UniProt Q6WB98 19-102); experiment: BLI, 58C stress
T12 construct: T411C-Q434C, A140C-S149C, T365I
Description: as §1, §2

hMPV117 = target: T13, hMPV117 (hMPV B, UniProt Q6WB98 19-102); experiment: BLI, 56C stress
T13 construct: T150C-R156C, A459P
Description: (§3) All measurements were conducted at 30° C. temperature in 96-well black plates (Corning, Corning, NY) with a final volume of 240 μL per well at a constant agitation rate of 1000 RPM.
(§4) Conformation integrity of hMPV B F protein mutants were evaluated by a thermal stress experiment. Crude cell culture supernatants were normalized based on the results of the titer quantitation and then incubated for 1 hour at room temperature and two higher temperatures. For the testing of hMPV B single mutants, the two temperatures were 53° C. and 56° C. After the incubation, the protein mutants were probed with prefusion specific monoclonal antibody hMPV-2 by OCTET HTX. Anti-Human IgG Fc Capture (AHC) biosensors were first equilibrated in PB before being dipped into more PB for to establish the initial baseline. Biosensors were incubated with hMPV-2 before being equilibrated in PB to establish the experimental baseline. The mAb-bound biosensors were then dipped into the thermal stresses cell culture supernatants for 5 minutes.

hMPV131 = target: T14, hMPV131 (hMPV B, UniProt Q6WB98 19-102); experiment: BLI, 56C stress
T14 construct: T49I, L141C-A161C, G239A, T411C-Q434C, A459P
Description: as §3, §4

hMPV124 = target: T15, hMPV124 (hMPV B, UniProt Q6WB98 19-102); experiment: BLI, 56C stress
T15 construct: L141C-A161C, T411C-Q434C, A459P
Description: as §3, §4

hMPV129 = target: T16, hMPV129 (hMPV B, UniProt Q6WB98 19-102); experiment: BLI, 56C stress
T16 construct: T49I, A140C-S149C, G239A, T365I, T411C-Q434C, A459P
Description: as §3, §4

hMPV120 = target: T17, hMPV120 (hMPV B, UniProt Q6WB98 19-102); experiment: BLI, 56C stress
T17 construct: A140C-S149C, T411C-Q434C
Description: as §3, §4

hMPV045 = target: T18, hMPV045 (hMPV A, UniProt Q6WB98 19-102); experiment: BLI, 53C stress
T18 construct: I137C-A159C
Description: as §1, §2

hMPV077 = target: T19, hMPV077 (hMPV A, UniProt Q6WB98 19-102); experiment: BLI, 53C stress
T19 construct: Q476C, S477C
Description: as §1, §2

hMPV069 = target: T20, hMPV069 (hMPV A, UniProt Q6WB98 19-102); experiment: BLI, 53C stress
T20 construct: S291I
Description: as §1, §2

hMPV062 = target: T21, hMPV062 (hMPV A, UniProt Q6WB98 19-102); experiment: BLI, 53C stress
T21 construct: G121A
Description: as §1, §2

hMPV048 = target: T22, hMPV048 (hMPV A, UniProt Q6WB98 19-102); experiment: BLI, 53C stress
T22 construct: L141C-A161C
Description: as §1, §2

PIV1033 = target: T23, PIV1033 (PIV1); experiment: BLI, 50C stress;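 note: binding of thermally stressed PIV1 F mutant supernatant to mAb on AHC biosensors for 5 min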
T23 construct: T198A
Description: as §3
(§5) Conformation integrity of PIV1 F protein mutants were evaluated by a thermal stress experiment. Crude cell culture supernatants were normalized based on the results of the titer quantitation and then incubated for 1 hour at room temperature and two higher temperatures. For the initial testing of PIV1 mutants, the two temperatures were 50° C. and 53° C. […] Anti-Human IgG Fc Capture (AHC) biosensors were first equilibrated in PB for before being dipped into more PB to establish the initial baseline. […] The mAb-bound biosensors were then dipped into the thermal stresses cell culture supernatants for 5 minutes.

PIV1024 = target: T24, PIV1024 (PIV1); experiment: BLI, 50C stress;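 note: binding of thermally stressed PIV1 F mutant supernatant to mAb on AHC biosensors for 5 min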
T24 construct: A466V
Description: as §3, §5

PIV1039 = target: T25, PIV1039 (PIV1); experiment: BLI, 50C stress;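 note: binding of thermally stressed PIV1 F mutant supernatant to mAb on AHC biosensors for 5 min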
T25 construct: A128P
Description: as §3, §5

PIV1014 = target: T26, PIV1014 (PIV1); experiment: BLI, 50C stress;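 note: binding of thermally stressed PIV1 F mutant supernatant to mAb on AHC biosensors for 5 min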
T26 construct: Q92C-G134C
Description: as §3, §5

PIV1027 = target: T27, PIV1027 (PIV1); experiment: BLI, 50C stress
T27 construct: S473L
Description: as §3, §5

PIV1036 = target: T28, PIV1036 (PIV1); experiment: BLI, 50C stress
T28 construct: G134A
Description: as §3, §5

PIV1031 = target: T29, PIV1031 (PIV1); experiment: BLI, 50C stress
T29 construct: A466L, S473L
Description: as §3, §5

PIV1026 = target: T30, PIV1026 (PIV1); experiment: BLI, 50C stress
T30 construct: S473V
Description: as §3, §5

PIV1028 = target: T31, PIV1028 (PIV1); experiment: BLI, 50C stress
T31 construct: A480L
Description: as §3, §5

PIV1023 = target: T32, PIV1023 (PIV1); experiment: BLI, 50C stress
T32 construct: A466L
Description: as §3, §5

PIV1030 = target: T33, PIV1030 (PIV1); experiment: BLI, 50C stress
T33 construct: A466L, S473A
Description: as §3, §5

B1: hMPV-2 mAb (antibody, V domains shown)
VH: QVQLQQSGAEVKKPGASVKVSCKASGYTFTSYGISWVRQAPGQGLEWMGWISGYNGNTNYAQTFQGTFTMTTDTSTSTAYMELRRLRSGDTAVYYCARDRYYASGSYNGMDVWGQGTTVTVSS
VL: QSALTQPPSASGAPGQRVTVSCSGSSSNVGSSSVYWYQQLPGTAPKLLIYRNNQRPSGVPDRFSGSKSGTSASLAISGLRSEDEADYYCAAWDDSLSGWVFGGGTKLTVLG
notes: human IgG1
hMPV082
  Response Shift: 0.804 nm
hMPV088
  Response Shift: 0.492 nm
hMPV090
  Response Shift: 0.77 nm
hMPV087
  Response Shift: 0.763 nm
hMPV086
  Response Shift: 0.735 nm
hMPV078
  Response Shift: 0.769 nm
hMPV097
  Response Shift: 0.905 nm
hMPV A F WT Control
  Response Shift: 0.015 nm
hMPV083
  Response Shift: 0.822 nm
hMPV079
  Response Shift: 0.736 nm
hMPV085
  Response Shift: 0.076 nm
hMPV084
  Response Shift: 0.183 nm
hMPV081
  Response Shift: 0.804 nm
hMPV117
  Response Shift: 0.64 nm
hMPV131
  Response Shift: 0.657 nm
hMPV124
  Response Shift: 0.766 nm
hMPV129
  Response Shift: 0.632 nm
hMPV120
  Response Shift: 0.564 nm
hMPV045
  Response Shift: -0.048 nm
hMPV077
  Response Shift: -0.007 nm
hMPV069
  Response Shift: -0.005 nm
hMPV062
  Response Shift: 0.013 nm
hMPV048
  Response Shift: -0.059 nm

B2: PIV1-8 mAb (antibody, V domains shown)
VH: QVQLVQSGAEVKKPGSSVKVSCEASGGTFSNYVISWVRQAPGQGLEWMGGIIPVFATAKYAQKFQGRVTIIADQSTNTAYLELSSLRSDDTAVYFCASVDSGGTWWDAFAIWGQGTMVTVSS
VL: QAVVTQPRSVSGSPGQAVTISCTGTSSDVGGYNYVSWYQHHPGKAPKLIIYDVTKRPSGVPDRFSGSKSGNTASLTISGLQTEYEADYYCCSYAGSYTLVFGGGTKLTVLG
notes: human IgG1; also called hPIV1-8 mAb; hPIV1-8
PIV1033
  Response Shift: -0.027 nm
PIV1024
  Response Shift: 0.022 nm
PIV1039
  Response Shift: -0.039 nm
PIV1014
  Response Shift: 0.011 nm
PIV1027
  Response Shift: -0.022 nm
PIV1036
  Response Shift: 0.007 nm
PIV1031
  Response Shift: 0.72 nm
PIV1026
  Response Shift: -0.022 nm
PIV1028
  Response Shift: -0.018 nm
PIV1023
  Response Shift: 0.018 nm
PIV1030
  Response Shift: -0.031 nm
